Target: specific IgE from a pool of sera from plantain-allergic patients
Assay: inhibition ELISA: nPla I 1 coated on plate, pooled-serum IgE inhibited by rPla I 1.0101, detection with HRP-labeled anti-human IgE

- % inhibition of IgE-binding: 80%
B1: recombinant Pla I 1 allergen, variant 0101 (rPla I 1.0101), expressed in Pichia pastoris (protein)
chain: ETQTSHPAKFHVEGEVYCNVCHSRNLINELSERMAGAQVQLDCKDDSKKVIYSIGGETDQDGVYRLPVVGYHEDCEIKLVKSSRPDCSEIPKLAKGTIQTSKVDLSKNTTITEKTRHVKPLSFRAKTDAPGC
modifications: partly N-glycosylated (glycosylated 22 kDa and non-glycosylated 17 kDa forms; potential N-glycosylation site at position 107)
